Data on seven substances can be found in paper PMC3323580.

Holding throughout (assay): SPR; C3b (1620 RU), C4b (1518 RU) and C1q (2125 RU) amine-coupled on three flow cells of one CM5 chip; CR1 fragments flowed at 30 µl/min, Biacore T100, 25°C, HBS-EP pH 7.4 (10 mM Hepes, 150 mM saline, 3 mM EDTA, 0.05% polysorbate 20); steady-state fit, one-to-one model; duplicates
(Surface plasmon resonance follows binding to a sensor surface in real time, without labels.)

Experiment [1] deals with C1q, classical complement pathway protein (UniProt P02745).
The target of experiment [2] is C3b, complement-activation fragment of C3.
For experiment [3], the target named is C4b, complement-activation fragment of C4.

Chain of C1q, classical complement pathway protein (P02745 23-245, chain 1 of 3): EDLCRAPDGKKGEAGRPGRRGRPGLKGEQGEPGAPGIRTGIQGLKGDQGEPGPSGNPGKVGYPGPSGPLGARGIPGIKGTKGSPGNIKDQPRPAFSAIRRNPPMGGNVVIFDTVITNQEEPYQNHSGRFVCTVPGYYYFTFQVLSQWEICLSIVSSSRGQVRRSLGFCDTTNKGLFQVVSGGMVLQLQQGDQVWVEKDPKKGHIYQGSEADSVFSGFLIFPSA
Chain of C1q, classical complement pathway protein (P02746 28-253, chain 2 of 3, further chain): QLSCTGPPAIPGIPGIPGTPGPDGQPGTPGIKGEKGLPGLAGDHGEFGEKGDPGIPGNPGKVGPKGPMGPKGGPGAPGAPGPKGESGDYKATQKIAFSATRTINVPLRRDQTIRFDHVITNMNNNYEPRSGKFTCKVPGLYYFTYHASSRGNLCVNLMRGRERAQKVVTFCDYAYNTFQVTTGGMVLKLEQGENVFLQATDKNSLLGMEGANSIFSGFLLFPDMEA
Chain of C1q, classical complement pathway protein (P02747 29-245, chain 3 of 3, further chain): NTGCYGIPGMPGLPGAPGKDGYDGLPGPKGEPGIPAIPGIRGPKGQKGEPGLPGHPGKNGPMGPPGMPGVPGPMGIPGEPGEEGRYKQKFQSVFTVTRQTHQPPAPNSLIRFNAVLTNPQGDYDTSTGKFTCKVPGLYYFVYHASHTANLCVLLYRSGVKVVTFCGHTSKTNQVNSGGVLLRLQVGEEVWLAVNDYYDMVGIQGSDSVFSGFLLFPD

As to “CR1 1–3 (site 1), complement receptor-type 1 CCPs 1–3 (domain or fragment)”, the dissociation constant (Kd) – broadly, the constant that tells how readily two partners part at equilibrium – was 30.9 µM in experiment [1], 38 µM in experiment [2] and 11.2 µM in experiment [3].

Turning to “CR1 15–17 (site 2), complement receptor-type 1 CCPs 15–17 (domain or fragment)”, the Kd is 0.82 µM in experiment [1], 1.06 µM in experiment [2] and 3.2 µM in experiment [3].

Take “CR1 15–25(EG), complement receptor-type 1 CCPs 15–25, Glu1590/Gly1601 variant (domain or fragment)”: the Kd in experiment [1] amounted to 5.1 µM; in experiment [2], 0.8 µM; in experiment [3], 5 µM.

Take “CR1 15–25(ER), complement receptor-type 1 CCPs 15–25, Glu1590/Arg1601 variant (domain or fragment)”: the results for the equilibrium dissociation constant (Kd) in experiment [1], in experiment [2] and in experiment [3] were 5.7 µM, 1.09 µM and 5.3 µM, respectively.

For “CR1 15–25(KG), complement receptor-type 1 CCPs 15–25, Lys1590/Gly1601 variant (domain or fragment)”, the dissociation constant (Kd) is 5.5 µM in experiment [1], 1.05 µM in experiment [2] and 5.2 µM in experiment [3].

For the substance “CR1 15–25(KR), complement receptor-type 1 CCPs 15–25, Lys1590/Arg1601 variant (domain or fragment)”, the figures for the Kd in experiment [1], in experiment [2] and in experiment [3] were 5.7 µM, 0.99 µM and 5.1 µM, respectively.

Consider “soluble CR1 (sCR1), full-length ectodomain of complement receptor-type 1 (from UniProt P17927 42-1971)”, for which the figures for the equilibrium dissociation constant (Kd) in experiment [2] and in experiment [3] were 0.53 µM and 0.91 µM, respectively.
